Test results: the nanobody polyreactivity screen of Harvey et al. (2022)

Assay: yeast display, Sf9 membrane polyspecificity reagent, FACS + sequencing; frameworks hold sequencing errors
In short: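 Using colony PCR, genes from sorted yeast display clones were amplified, then sequenced on MiSeq at 2 × 250 and filtered by CDR length. The clones had been stained with 10% biotinylated, detergent-solubilized Sf9 membrane reagent for 1 hour at 4 °C and sorted by FACS into low and high (top ~1%) gates on anti-HA and streptavidin fluorescence. Polyreactivity labels come from the gate of origin.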

Sequence | polyreactivity (PSR sort gate)
QVQLVESGGGLVQAGGSLRLSSAASGRIFYNYAMGWYRQSPGKERELVAAISGSGGSTYYADSVKGRFTISRDNAKNTVYLQMNSLKPEDTAVFYCSTSGPQYYSRNFDYWGQGTQVTVSS | low polyreactivity
QVQLVESGGGLVQAGGSLRLSSAASGRIFYRNAMGWCRQAPGKERELVASITSAGRRYYADSVKGRFTISRDNAKNTVYLQMNSLKPEDTAVYYCAVRVAVLLNLYGYWGQGTQVTVSS | low polyreactivity
QVQLVESGGGLVQAGGSLRLSSAASGRIFYYNAMGWYSQAPGKERELVAAITRGGSTYYADSVKGRFTISRDNAKNTVYLQMNSLKPEDTAVYYCAAYLDYWSYLNGQYDYWGQGTQVTVSS | high polyreactivity
QVQLVESGGGLVQAGGSLRLSSAASGRIIDDNTMGWYRQAPGKERELVAAISVSGGRTYYADSVKGRFTISRDNAKNTVYLQMNSLNPEDTAVYFCAAARGGEYWGQGTQVTVSS | high polyreactivity
QVQLVESGGGLVQAGGSLRLSSAASGRTFNIYAKGWYRHAPGKERELVAAITWRSGSTYDADSVKGRFTISRDNAKNTVYLQMNSLKPEDTAVYYCAAEQWSSVPEFDYWGQGTQVTVSS | high polyreactivity
QVQLVESGGGLVQAGGSLRLSSAASGRTFRHYALGWSRQAPGKERELVAVISWRGTGTYYADSVKGRFTISRDNAKNTVYLQMTSLKPEDTSVYYCATVWGLGYRMNYWGQGTQVTVSS | high polyreactivity
QVQLVESGGGLVQAGGSLRLSSAASGRTFRYYAMGWYRQAPGKERELVASISDGGSTNYADSVKGRFTISRDNAKNTVYLQMNSLKPEDTAVYYCAADGWWQYDYWGQGTQVTVSS | low polyreactivity
QVQLVESGGGLVQAGGSLRLSSAASGRTFSSYAMGWYRQAPGKERELVAAINWSGASTYYADSVKGRFTISRDNAKNTVYLQMNSLKPEDTAVYYCAKSLYVGKYWQIRSSVDYWGQGTQVTVSS | low polyreactivity
QVQLVESGGGLVQAGGSLRLSSAASGRTFYDYAMGWYRQAPGKERELVAAITYSGGSTFYADSVKGRFTISRDNAKNTVYLQMNSLTPEDTAVYYCAAEVLRLGGAAEYDYCGQGTQVTVSS | low polyreactivity
QVQLVESGGGLVQAGGSLRLSSAASGRTFYRHAMGWYRQAPGKERELVAASTRSGSTNYADSVKGRFTISRDNAKNTVYLQMNSLKPEDTADYYCAAKFFRNTYSYGMDYWGQGTQVTVSS | high polyreactivity
QVQLVESGGGLVQAGGSLRLSSAASGRTFYRNAIGWYRQAPGKERELVAAISSGSTTYYADSVKGRFTISRDNAKNTVYLQMNSLKPEDTAVYYCATTLRQYKPPSGRDYWGQGTQVTVSS | low polyreactivity
QVQLVESGGGLVQAGGSLRLSSAASGRTFYSNAMGWYRQAPGKERELVAAITRGASTKYADSVKGRFTISRDNAKNSVYLQMNSLKPEDTAVYYCDTARYPRYIYDYWGQGTQVTVSS | low polyreactivity
QVQLVESGGGLVQAGGSLRLSSAASGRTFYWYAMGWYRQAPGKQRELVASISIDGRTYYADSVKGRFTISRDNAKNNVYLQMNSLKPEDTAVYYCNVVRYYPYRPTTKRGGGYWGQGTQVSVSS | high polyreactivity
QVQLVESGGGLVQAGGSLRLSSAASGRTFYYYAFGWYRQAPGKERELVARITAICGRTYYADSVKGRFTISLDNAKNTVYLQMNCLKPEDTAVYYCAAASWPAYSYYPFYYWGQGSQVTVSS | high polyreactivity
QVQLVESGGGLVQAGGSLRLSSAASGRTISNYDMGWYRQAPGKERELVAAITYSGGSTYYADSVKGRFTISRDNAKNTVYLQMNSLKPEDTAVYYCAKISGTYYRYDYWGQGTQVTVSS | high polyreactivity
QVQLVESGGGLVQAGGSLRLSSAASGSIFDPYAMGWYRQAPGKERELVAGISFSGGRTYYADSVKGRFTISRDNAKNTVYLQMNSLKPEDTAVYYCNKLLTQGAYPYYYWGQGTQVTVSS | high polyreactivity
QVQLVESGGGLVQAGGSLRLSSAASGSIFGANAIGWYRQAPGKERELVAAISRRGRSTYYADSVKGRFTISRDNAKYTVYLQLNSLKPEDTAVYYSAAKRPQYYVQYGYWGQGTQVTVSS | high polyreactivity
QVQLVESGGGLVQAGGSLRLSSAASGSIFGDYVMGWYRPAPGKERELVAAINRGGSTYYADSVKGRFTISRDNAKNTVYLQMNSLKPEDTAVYDCAKDYHNYPSFGVDYCGQGTQVTVSS | low polyreactivity
QVQLVESGGGLVQAGGSLRLSSAASGSIFGPYAMGWYRQAPGKERELVAAITWTGGRTYYADSVKGRFTISRDNAKKTVYLQMHSLKPEDTAVDYCAADYSPSTWYLYYTLYYYWGQGTQVTVSS | low polyreactivity
QVQLVESGGGLVQAGGSLRLSSAASGSIFGYNPMGWYRPAPGKERELVAAIRISTDNTYYADSVKGRFTISRDNAKNTVYLQMNSLKPEDTAVDYCAADEYWWGYYYWGQGTQVTVSS | high polyreactivity
QVQLVESGGGLVQAGGSLRLSSAASGSIFKINAMGWYRQAPGKETELVATITWSTGTTYYADSVKGRFTISRDNAKNTVYLQMNSLKPEDTAVYYCATDGDSTKLDYWGQVTQVTVSS | low polyreactivity
QVQLVESGGGLVQAGGSLRLSSAASGSIFLKNAMGRSRQAPGKERELVARISFSGGSTYYADSVKGRFTISRDNAQNTVYLQMNSLKPEDTAVYYCAKTVLRTESGWWIKFDYWGQGTQVTVSS | low polyreactivity

Sequence | polyreactivity (PSR sort gate)
QVQLVESGGGLVQAGGSLRLSSAASGSIFSQYDIGWYRPAPGKERQLVAAISSGGSTYYADSVKGRFTISRYNAKNTVYLQMNSLKPEDTAVYYCAAVYYQITTTHYLHLHYDYWGQGTQVTVSS | low polyreactivity
QVQLVESGGGLVQAGGSLRLSSAASGSIFVNYVMGWYRQAPGKERELVADISSGGSTYYADSVKGRFTISRDNAKNTVYLQMNSLKPEDTAVYYCNAVYPYTYDYWGQGTQVTVSS | low polyreactivity
QVQLVESGGGLVQAGGSLRLSSAASGSIFYDNAMAGYRQAPGKERELVAVITVSGESTYYADSVKGRFTISRDNAKTTVYLQMNSLKPEDTAVYYCNTDAISGSHFWRYITFGYLDDYWGQGTQVTVSS | low polyreactivity
QVQLVESGGGLVQAGGSLRLSSAASGSIFYDYAMGWYRQAPGKERELVAAITNDDSSTYYADSVKGRFTISRDNAKNTVYLQMNSLKPEDTAVYYCRFKYAVAHHFWVYRYDYWGQGTQVTVSS | low polyreactivity
QVQLVESGGGLVQAGGSLRLSSAASGSIFYGNTMGWYRQAPGKERELVAAIRSVGRTYYADSVKGRFTISRDNAKNTDSLQMNSLKPEDTAVYYCAADPRSYFTSEYWGQGSQVTVSS | low polyreactivity
QVQLVESGGGLVQAGGSLRLSSAASGSIFYYYAMGWYRQAPGKARELVATINISDGSTYYAVSVKGRFTISRDNAKNTVYLQMNSLKPEDTAVYYCAAYYYFQDYDYWGQGTQVTVSS | low polyreactivity
QVQLVESGGGLVQAGGSLRLSSAASGSIIQSNAIGGYRQAPGTERELVAAISYRGSRTYYADSVKGRFTISRDNAKNTVYIQMNSLKPDDTAVYYCAAVYRTYGIGPNNYWGQGTQVTVSS | high polyreactivity
QVQLVESGGGLVQAGGSLRLSSAASGSTFDYYALGWYSQARGKERELVAAISTSGSSTYYADSVKGRFTISRDNAKNTVYLQMNSLKPVDTAVYYCAAPIRYKGGYWGQGTQVTVSS | low polyreactivity
QVQLVESGGGLVQAGGSLRLSSAASGSTFDYYAMGWYRQAPGKERELVDGITYSGGTTYYADSVKGRFTISRDNAKNTVYLQMNSLKPEDTAVYYCNAVYDRNFYYWGQGTQVTVSS | high polyreactivity
QVQLVESGGGLVQAGGSLRLSSAASGSTFEIYAMGWYRQAPGKERDLVAGITTSDGRTDYADSVKGRFTISRDNAKNTVYLLMNILKPEDTAVYYCAKVTLGYTWYQYDYWGQGTQVTVSS | low polyreactivity
QVQLVESGGGLVQAGGSLRLSSAASGSTFFSYAMGWYRQAPGKERELVAAITRSGGSTYYADSVKGRFTISRDNAKNNVYLHMNSLTPEDTSVYYCAVLSALWRVFTERGYWGQGTQVTVSS | high polyreactivity
QVQLVESGGGLVQAGGSLRLSSAASGSTFGYNAMGRYRPAPGKERELVAAISRSGGSTSNADSVMGRFTISRDNANNTVYLQMNSLKPEDTAVYYCAARYYKERYWGQGTQVTVSA | low polyreactivity
QVQLVESGGGLVQAGGSLRLSSAASGSTFHNYAMRWSRQAPGNEREWVASIRLIGGSTYYADSVKGRFTISRDNAKNTVYLQMNSLKPEDTAVYYCAATSTDRSYLEYDYWGQGTQVTVSS | low polyreactivity
QVQLVESGGGLVQAGGSLRLSSAASGSTFRTYTMGWYRQAPGKERELVASITSGGRTYYADSVKGRFTISRDNAKNTVYLQMNSMKPEDTAVYYCAADVCKLYDYWGQGTQVTVSS | low polyreactivity
QVQLVESGGGLVQAGGSLRLSSAASGSTFRYNAMGWYRQAPGKERELVAAITSTGDSTYYADSVKGRFTISRDNAKNTVYLQMNSLKPEDTAVYYCAARSYASPGWRYEYWGQGTQVTVSS | low polyreactivity
QVQLVESGGGLVQAGGSLRLSSAASGSTFRYYPMGWYRQAPGKERELLARISWRGGSTYYADSVKGRFTISRDNAKNTVYLQMNSLKPEDTAVYYCAAVRWVRYRTSAYEYWGQGTQVTVSS | high polyreactivity
QVQLVESGGGLVQAGGSLRLSSAASGSTFSLYTMGWYRQEPGKERELVAAITWTGGSTYYADSVKGRFTISRDNAKNTVYLQMNSLKPEDTAVYYCAAVSRLTGSRESQLIRSRMYYWGQGTQVTVSS | high polyreactivity
QVQLVESGGGLVQAGGSLRLSSAASGSTFSYYAMGWYRQAPGKDRELVAAITSSGGSTYYADSVKGRFTISRDNAKNTVYLEMNSLKPEDTEVYYCNTAYHVPYDYWGQGTQVTVSS | low polyreactivity
QVQLVESGGGLVQAGGSLRLSSAASGSTFTGYTMGWYRQATGKERELVASIRTYYADSVKGRFTISRDNAKNTVYLQMNSLKPEDTAVYYCAADFPSATGGYDYWGQGTQVTVSS | low polyreactivity
QVQLVESGGGLVQAGGSLRLSSAASGSTFTRYGMGWYRQAPGKERELVAAITTSGSSTYYADSVKGRFTISRDNAKNTVYLQMNSLKPEDTAVYYCAADWSSWGFDYWGQGTQVTVSS | low polyreactivity
QVQLVESGGGLVQAGGSLRLSSAASGSTFVTYAMGWYRQAPGKERELVAAISRRGGSTYYADSVKGRFTISRDNAKNTVYLQMNCLKPEDTAVYYCAPVQGSYSRDGADDYWGQGTQVTVSS | high polyreactivity
